Laboratory results as given in the supplement of paper PMC5998384.

Experiments:
HeLa Kyoto [1] = assay: solubility change mitosis vs G1/S (difference of NP-40 vs SDS log2 ratios) (log2 ratio difference); higher = more soluble in mitosis
HeLa Kyoto [2] = assay: thermal stability score vs G1/S (z-score of summed log2 fold changes over temperatures); higher = more thermally stable than in G1/S
HeLa Kyoto [3] = assay: solubility in G1/S (NP-40 vs SDS abundance) (log2 ratio); higher = more soluble; conditions: cell cycle stage: G1/S
HeLa Kyoto [4] = assay: melting temperature (median over replicates), in situ; higher = more thermally stable
[5] = cell cycle stage: early G1 (4.5 h after nocodazole release)
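For melting temperature (median over replicates), in situ in this document: HeLa Kyoto cells synchronized by double thymidine or nocodazole block, proteins quantified by TMT10plex mass spectrometry, three independent biological replicates.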
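For solubility change mitosis vs G1/S (difference of NP-40 vs SDS log2 ratios) in this document: synchronized HeLa Kyoto cells (double thymidine block for G1/S, nocodazole release for mitosis), protein amounts in NP-40 versus SDS lysates quantified by mass spectrometry, three biological replicates.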
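For solubility in G1/S (NP-40 vs SDS abundance) in this document: HeLa Kyoto cells arrested at G1/S by double thymidine block, proteins quantified by TMT10plex mass spectrometry in mild NP-40 versus SDS extracts, three biological replicates.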
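For thermal stability score vs G1/S (z-score of summed log2 fold changes over temperatures) in this document: synchronized HeLa Kyoto cells, proteins quantified by TMT10plex mass spectrometry, three biological replicates, mitosis taken 0.5 h after nocodazole release, G1/S directly after double thymidine block.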

Sequence of ACP2 (chain, as listed by the source): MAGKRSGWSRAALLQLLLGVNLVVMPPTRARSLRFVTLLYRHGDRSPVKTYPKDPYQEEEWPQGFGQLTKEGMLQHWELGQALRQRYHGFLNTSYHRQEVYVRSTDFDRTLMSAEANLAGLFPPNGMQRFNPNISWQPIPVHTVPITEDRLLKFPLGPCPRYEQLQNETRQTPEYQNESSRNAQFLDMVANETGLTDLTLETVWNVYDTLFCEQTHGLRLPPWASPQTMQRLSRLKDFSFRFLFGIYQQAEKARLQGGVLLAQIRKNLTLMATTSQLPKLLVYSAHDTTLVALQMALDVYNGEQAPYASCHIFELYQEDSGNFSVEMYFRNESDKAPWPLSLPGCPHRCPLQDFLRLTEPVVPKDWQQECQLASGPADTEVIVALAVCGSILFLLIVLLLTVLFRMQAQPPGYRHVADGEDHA

Row | Substance | solubility change mitosis (log2) (HeLa Kyoto [1]) | thermal stability score (HeLa Kyoto [2]; [5]) | thermal stability score (HeLa Kyoto [2]; cell cycle stage: mitosis) | solubility in G1/S (log2) (HeLa Kyoto [3]) | melting temperature (HeLa Kyoto [4]; cell cycle stage: G1/S) [°C] | melting temperature (HeLa Kyoto [4]; cell cycle stage: mitosis) [°C]
1 | MDSTLTASEIRQRFIDFFKRNEHTYVHSSATIPLDDPTLLFANAGMNQFKPIFLNTIDPSHPMAKLSRAANTQKCIRAGGKHNDLDDVGKDVYHHTFFEMLGSWSFGDYFKELACKMALELLTQEFGIPIERLYVTYFGGDEAAGLEADLECKQIWQNLGLDDTKILPGNMKDNFWEMGDTGPCGPCSEIHYDRIGGRDAAHLVNQDDPNVLEIWNLVFIQYNREADGILKPLPKKSIDTGMGLERLVSVLQNKMSNYDTDLFVPYFEAIQKGTGARPYTGKVGAEDADGIDMAYRVLADHARTITVALADGGRPDNTGRGYVLRRILRRAVRYAHEKLNASRGFFATLVDVVVQSLGDAFPELKKDPDMVKDIINEEEVQFLKTLSRGRRILDRKIQSLGDSKTIPGDTAWLLYDTYGFPVDLTGLIAEEKGLVVDMDGFEEERKLAQLKSQGKGAGGEDLIMLDIYAIEELRARGLEVTDDSPKYNYHLDSSGSYVFENTVATVMALRREKMFVEEVSTGQECGVVLDKTCFYAEQGGQIYDEGYLVKVDDSSEDKTEFTVKNAQVRGGYVLHIGTIYGDLKVGDQVWLFIDEPRRRPIMSNHTATHILNFALRSVLGEADQKGSLVAPDRLRFDFTAKGAMSTQQIKKAEEIANEMIEAAKAVYTQDCPLAAAKAIQGLRAVFDETYPDPVRVVSIGVPVSELLDDPSGPAGSLTSVEFCGGTHLRNSSHAGAFVIVTEEAIAKGIRRIVAVTGAEAQKALRKAESLKKCLSVMEAKVKAQTAPNKDVQREIADLGEALATAVIPQWQKDELRETLKSLKKVMDDLDRASKADVQKRVLEKTKQFIDSNPNQPLVILEMESGASAKALNEALKLFKMHSPQTSAMLFTVDNEAGKITCLCQVPQNAANRGLKASEWVQQVSGLMDGKGGGKDVSAQATGKNVGCLQEALQLATSFAQLRLGDVKN [AARS] | -0.1 | 2.25 | 2.81 | 0.201 | 51.6 | 52.1
2 | MAAEIHSRPQSSRPVLLSKIEGHQDAVTAALLIPKEDGVITASEDRTIRVWLKRDSGQYWPSIYHTMASPCSAMAYHHDSRRIFVGQDNGAVMEFHVSEDFNKMNFIKTYPAHQNRVSAIIFSLATEWVISTGHDKCVSWMCTRSGNMLGRHFFTSWASCLQYDFDTQYAFVGDYSGQITLLKLEQNTCSVITTLKGHEGSVACLWWDPIQRLLFSGASDNSIIMWDIGGRKGRTLLLQGHHDKVQSLCYLQLTRQLVSCSSDGGIAVWNMDVSREEAPQWLESDSCQKCEQPFFWNIKQMWDTKTLGLRQHHCRKCGQAVCGKCSSKRSSYPVMGFEFQVRVCDSCYDSIKDEDRTSLATFHEGKHNISHMSMDIARGLMVTCGTDRIVKIWDMTPVVGCSLATGFSPH [WDFY1] | -0.0745 | 1.13 | -1.04 | -0.607 | 54.2 | 54.5
3 | MGHRFLRGLLTLLLPPPPLYTRHRMLGPESVPPPKRSRSKLMAPPRIGTHNGTFHCDEALACALLRLLPEYRDAEIVRTRDPEKLASCDIVVDVGGEYDPRRHRYDHHQRSFTETMSSLSPGKPWQTKLSSAGLIYLHFGHKLLAQLLGTSEEDSMVGTLYDKMYENFVEEVDAVDNGISQWAEGEPRYALTTTLSARVARLNPTWNHPDQDTEAGFKRAMDLVQEEFLQRLDFYQHSWLPARALVEEALAQRFQVDPSGEIVELAKGACPWKEHLYHLESGLSPPVAIFFVIYTDQAGQWRIQCVPKEPHSFQSRLPLPEPWRGLRDEALDQVSGIPGCIFVHASGFIGGHRTREGALSMARATLAQRSYLPQIS [C12ORF10] | -0.074 | -0.294 | -1.46 | 0.418 | 53.8 | 53.9
4 | MLMLFVFGVLLHEVSLSGQNEAPPNTHSIPGEPLYNYASIRLPEEHIPFFLHNNRHIATVCRKDSLCPYKKHLEKLKYCWGYEKSCKPEFRFGYPVCSYVDMGWTDTLESAEDIFWKQADFGYARERLEEMHVLCQPKETSDSSLVCSRYLQYCRATNLYLDLRNIKRNHDRFKEDFFQSGEIGGHCKLDIRTLTSEGQRKSPLQSWFAELQSYTQLNFRPIEDAKCDIVIEKPTYFMKLDAGVNMYHHFCDFINLYITQHVNNSFSTDVYIVMWDTSSYGYGDLFSDTWNAFTDYDVIHLKTYDSKRVCFKEAVFSLLPRMRYGLFYNTPLISGCQNTGLFRAFAQHVLHRLNITQEGPKDGKIRVTILARSTEYRKILNQNELVNALKTVSTFEVQIVDYKYRELGFLDQLRITHNTDIFIGMHGAGLTHLLFLPDWAAVFELYNCEDERCYLDLARLRGVHYITWRRQNKVFPQDKGHHPTLGEHPKFTNYSFDVEEFMYLVLQAADHVLQHPKWPFKKKHDEL [EOGT] | -0.00851 | 2.26 | 3.42 | -0.298 | 53.3 | 54.9
5 | MSGEPGQTSVAPPPEEVEPGSGVRIVVEYCEPCGFEATYLELASAVKEQYPGIEIESRLGGTGAFEIEINGQLVFSKLENGGFPYEKDLIEAIRRASNGETLEKITNSRPPCVIL [MIEN1] | -0.0195 | -1.21 | 0.00566 | 0.353 | 50.8 | 51.1
6 | MMGLGNGRRSMKSPPLVLAALVACIIVLGFNYWIASSRSVDLQTRIMELEGRVRRAAAERGAVELKKNEFQGELEKQREQLDKIQSSHNFQLESVNKLYQDEKAVLVNNITTGERLIRVLQDQLKTLQRNYGRLQQDVLQFQKNQTNLERKFSYDLSQCINQMKEVKEQCEERIEEVTKKGNEAVASRDLSENNDQRQQLQALSEPQPRLQAAGLPHTEVPQGKGNVLGNSKSQTPAPSSEVVLDSKRQVEKEETNEIQVVNEEPQRDRLPQEPGREQVVEDRPVGGRGFGGAGELGQTPQVQAALSVSQENPEMEGPERDQLVIPDGQEEEQEAAGEGRNQQKLRGEDDYNMDENEAESETDKQAALAGNDRNIDVFNVEDQKRDTINLLDQREKRNHTL [GOLM1] | 0.556 | -2.29 | -1.82 | -0.0257 | 55.9 | 59.3
7 | MYLVAGDRGLAGCGHLLVSLLGLLLLLARSGTRALVCLPCDESKCEEPRNCPGSIVQGVCGCCYTCASQRNESCGGTFGIYGTCDRGLRCVIRPPLNGDSLTEYEAGVCEDENWTDDQLLGFKPCNENLIAGCNIINGKCECNTIRTCSNPFEFPSQDMCLSALKRIEEEKPDCSKARCEVQFSPRCPEDSVLIEGYAPPGECCPLPSRCVCNPAGCLRKVCQPGNLNILVSKASGKPGECCDLYECKPVFGVDCRTVECPPVQQTACPPDSYETQVRLTADGCCTLPTRCECLSGLCGFPVCEVGSTPRIVSRGDGTPGKCCDVFECVNDTKPACVFNNVEYYDGDMFRMDNCRFCRCQGGVAICFTAQCGEINCERYYVPEGECCPVCEDPVYPFNNPAGCYANGLILAHGDRWREDDCTFCQCVNGERHCVATVCGQTCTNPVKVPGECCPVCEEPTIITVDPPACGELSNCTLTGKDCINGFKRDHNGCRTCQCINTEELCSERKQGCTLNCPFGFLTDAQNCEICECRPRPKKCRPIICDKYCPLGLLKNKHGCDICRCKKCPELSCSKICPLGFQQDSHGCLICKCREASASAGPPILSGTCLTVDGHHHKNEESWHDGCRECYCLNGREMCALITCPVPACGNPTIHPGQCCPSCADDFVVQKPELSTPSICHAPGGEYFVEGETWNIDSCTQCTCHSGRVLCETEVCPPLLCQNPSRTQDSCCPQCTDQPFRPSLSRNNSVPNYCKNDEGDIFLAAESWKPDVCTSCICIDSVISCFSESCPSVSCERPVLRKGQCCPYCIEDTIPKKVVCHFSGKAYADEERWDLDSCTHCYCLQGQTLCSTVSCPPLPCVEPINVEGSCCPMCPEMYVPEPTNIPIEKTNHRGEVDLEVPLWPTPSENDIVHLPRDMGHLQVDYRDNRLHPSEDSSLDSIASVVVPIIICLSIIIAFLFINQKKQWIPLLCWYRTPTKPSSLNNQLVSVDCKKGTRVQVDSSQRMLRIAEPDARFSGFYSMQKQNHLQADNFYQTV [CRIM1] | -0.0635 | -2.44 | -0.713 | -0.0525 | 53.8 | 54.9
8 | KIF21A | -0.0922 | -1.01 | 0.181 | -0.0549 | 49.5 | 50.3
9 | MLLWPLLLLLLLLPTLALLRQQRSQDARLSWLAGLQHRVAWGALVWAATWQRRRLEQSTLHVHQSQQQALRWCLQGAQRPHCSLRRSTDISTFRNHLPLTKASQTQQEDSGEQPLPPTSNQDLGEASLQATLLGLAALNKAYPEVLAQGRTARVTLTSPWPRPLPWPGNTLGQVGTPGTKDPRALLLDALRSPGLRALEAGTAVELLDVFLGLETDGEELAGAIAAGNPGAPLRERAAELREALEQGPRGLALRLWPKLQVVVTLDAGGQAEAVAALGALWCQGLAFFSPAYAASGGVLGLNLQPEQPHGLYLLPPGAPFIELLPVKEGTQEEAASTLLLAEAQQGKEYELVLTDRASLTRCRLGDVVRVVGAYNQCPVVRFICRLDQTLSVRGEDIGEDLFSEALGRAVGQWAGAKLLDHGCVESSILDSSAGSAPHYEVFVALRGLRNLSEENRDKLDHCLQEASPRYKSLRFWGSVGPARVHLVGQGAFRALRAALAACPSSPFPPAMPRVLRHRHLAQCLQERVVS [GHDC] | -0.154 | 0.585 | 1.25 | -0.104 | 53.7 | 55.1
10 | MGGPRGAGWVAAGLLLGAGACYCIYRLTRGRRRGDRELGIRSSKSAGALEEGTSEGQLCGRSARPQTGGTWESQWSKTSQPEDLTDGSYDDVLNAEQLQKLLYLLESTEDPVIIERALITLGNNAAFSVNQAIIRELGGIPIVANKINHSNQSIKEKALNALNNLSVNVENQIKIKIYISQVCEDVFSGPLNSAVQLAGLTLLTNMTVTNDHQHMLHSYITDLFQVLLTGNGNTKVQVLKLLLNLSENPAMTEGLLRAQVDSSFLSLYDSHVAKEILLRVLTLFQNIKNCLKIEGHLAVQPTFTEGSLFFLLHGEECAQKIRALVDHHDAEVKEKVVTIIPKI [ARMC10] | -0.108 | 0.978 | 1.04 | 0.226 | 50.8 | 49.7
11 | MASGNARIGKPAPDFKATAVVDGAFKEVKLSDYKGKYVVLFFYPLDFTFVCPTEIIAFSNRAEDFRKLGCEVLGVSVDSQFTHLAWINTPRKEGGLGPLNIPLLADVTRRLSEDYGVLKTDEGIAYRGLFIIDGKGVLRQITVNDLPVGRSVDEALRLVQAFQYTDEHGEVCPAGWKPGSDTIKPNVDDSKEYFSKHN [PRDX2] | 0.0464 | -3.24 | -3.32 | 0.354 | 55 | 55.1
12 | NUP210 | 0.0421 | 6.11 | 9.9 | -0.0147 | 54.3 | 53.7
13 | MEPSSKKLTGRLMLAVGGAVLGSLQFGYNTGVINAPQKVIEEFYNQTWVHRYGESILPTTLTTLWSLSVAIFSVGGMIGSFSVGLFVNRFGRRNSMLMMNLLAFVSAVLMGFSKLGKSFEMLILGRFIIGVYCGLTTGFVPMYVGEVSPTALRGALGTLHQLGIVVGILIAQVFGLDSIMGNKDLWPLLLSIIFIPALLQCIVLPFCPESPRFLLINRNEENRAKSVLKKLRGTADVTHDLQEMKEESRQMMREKKVTILELFRSPAYRQPILIAVVLQLSQQLSGINAVFYYSTSIFEKAGVQQPVYATIGSGIVNTAFTVVSLFVVERAGRRTLHLIGLAGMAGCAILMTIALALLEQLPWMSYLSIVAIFGFVAFFEVGPGPIPWFIVAELFSQGPRPAAIAVAGFSNWTSNFIVGMCFQYVEQLCGPYVFIIFTVLLVLFFIFTYFKVPETKGRTFDEIASGFRQGGASQSDKTPEELFHPLGADSQV [SLC2A1] | -0.284 | -1.89 | -3.29 | 0.0648 | 57.3 | 
14 | ACP2 | 0.018 | -1.34 | -0.755 | 0.434 | 56.1 | 57.2
